Experimental data as given in US20180171001A1.
Residue numbers refer to the chain shown, from its start.

B1: γ59κ5 (antibody, V domains shown)
VH: QIHLVQSGTEVKKPGSSVTVSCKAYGVNTFGLYAVNWVRQAPGQGLEYIGQIWRWKSSASHHFRGRVLISAVDLTGSSPPISSLEIKNVTSDDTAVYFCTTTSTYDEWSDLHHDGVMAFSSWGQGTLISVSA
VL: DIQMTQSPSTLSASTGDTVRISCRASQSITGNWVAWYQQRPGKAPRLLIYRGAALLGGVPSRFRGSAAGTDFTLTIGNLQAEDFGTFYCQQYDTYPGTFGQGTKVEVKR
B2: γ46κ11 (antibody, V domains shown)
VH: B1 VH with E107K, D110G, M117V
VL: B1 VL with T15V, D17G, N32G, V34L, Q38H, A53S, A54R, R64S, G77A
B3: γ44κ11 (antibody, V domains shown)
VH: B1 VH with G26E, G45S, Y105H, E107K, D110G
VL: B1 VL with T15V, D17G, N32G, V34L, Q38H, A53S, A54R, R64S, G77A
B4: γ3κ11 (antibody, V domains shown)
VH: QIHLVQSGTEVKKPGSSVTVSCKAYGVNTFGLYAVSWVRQAPGQRLEYIGQIRRWKSSASHHFRGRVTVSAVDPTGSSPPISSLEIRDLTTDDTAVYFCTTTSTSDYWSGLHNERGTAFSSWGQGTLISVSA
VL: B1 VL with T15V, D17G, N32G, V34L, Q38H, A53S, A54R, R64S, G77A
B5: γ15κ11 (antibody, V domains shown)
VH: B1 VH with G45S, L68I, V89L, T102A, E107K, D110G
VL: B1 VL with T15V, D17G, N32G, V34L, Q38H, A53S, A54R, R64S, G77A
B6: γ52κ11 (antibody, V domains shown)
VH: B1 VH with G45S, V89L, E107R, D110G
VL: B1 VL with T15V, D17G, N32G, V34L, Q38H, A53S, A54R, R64S, G77A
B7: γ23κ11 (antibody, V domains shown)
VH: B1 VH with G45S, L68I, V89L, Y105S, E107Y, D110G
VL: B1 VL with T15V, D17G, N32G, V34L, Q38H, A53S, A54R, R64S, G77A
B8: γ3κ18 (antibody, V domains shown)
VH: B4 VH
VL: B1 VL with T15V, N32G, V34L, Q38H, A53S, A54R, R64S, T70A, G77A
B9: γ20κ11 (antibody, V domains shown)
VH: B1 VH with T19A, G45S, H62D, L68I, V89L, T101A, Y105P, E107Y, D110G
VL: B1 VL with T15V, D17G, N32G, V34L, Q38H, A53S, A54R, R64S, G77A
B10: γ22κ11 (antibody, V domains shown)
VH: B1 VH with G45S, S77P, V89L, E107K, D110G
VL: B1 VL with T15V, D17G, N32G, V34L, Q38H, A53S, A54R, R64S, G77A
B11: γ59κ11 (antibody, V domains shown)
VH: B1 VH
VL: B1 VL with T15V, D17G, N32G, V34L, Q38H, A53S, A54R, R64S, G77A
B12: γ4κ18 (antibody, V domains shown)
VH: B1 VH with G45S, L68I, S83P, V89L, Y105S, E107R, D110G
VL: B1 VL with T15V, N32G, V34L, Q38H, A53S, A54R, R64S, T70A, G77A

biological target: Env of HIV-1 strain 231965.c1 (HIV-1); assay: cell-based or functional assay

Row | Binder | neutralization IC50 [µg/mL]
1 | B1 | > 15
2 | B2 | 2.95
3 | B3 | > 15
4 | B4 | 0.455
5 | B5 | 5.1
6 | B6 | 0.298
7 | B7 | 0.543
8 | B8 | 0.163
9 | B9 | > 15
10 | B10 | > 15
11 | B11 | > 15
12 | B12 | > 15

biological target: Env of HIV-1 strain 250-4 (HIV-1); assay: cell-based or functional assay

Row | Binder | neutralization IC50 [µg/mL]
13 | B1 | > 15
14 | B2 | > 15
15 | B3 | > 15
16 | B4 | > 15
17 | B5 | > 15
18 | B6 | > 15
19 | B7 | > 15
20 | B8 | > 15
21 | B9 | > 15
22 | B10 | > 15
23 | B11 | > 15
24 | B12 | > 15

biological target: Env of HIV-1 strain 251-18 (HIV-1); assay: cell-based or functional assay

Row | Binder | neutralization IC50 [µg/mL]
25 | B1 | 6.96
26 | B2 | > 15
27 | B3 | > 15
28 | B4 | > 15
29 | B5 | > 15
30 | B6 | 0.647
31 | B7 | 2.49
32 | B8 | > 15
33 | B9 | > 15
34 | B10 | > 15
35 | B11 | > 15
36 | B12 | > 15

biological target: Env of HIV-1 strain 3016.v5.c45 (HIV-1); assay: cell-based or functional assay

Row | Binder | neutralization IC50 [µg/mL]
37 | B1 | > 15
38 | B2 | 1.93
39 | B3 | > 15
40 | B4 | 0.145
41 | B5 | 1.32
42 | B6 | 0.161
43 | B7 | 0.159
44 | B8 | 0.057
45 | B9 | > 15
46 | B10 | > 15
47 | B11 | > 15
48 | B12 | > 15

biological target: Env of HIV-1 strain 3365.v2.c20 (HIV-1); assay: cell-based or functional assay

Row | Binder | neutralization IC50 [µg/mL]
49 | B1 | > 15
50 | B2 | > 15
51 | B3 | > 15
52 | B4 | > 15
53 | B5 | > 15
54 | B6 | > 15
55 | B7 | > 15
56 | B8 | > 15
57 | B9 | > 15
58 | B10 | > 15
59 | B11 | > 15
60 | B12 | > 15

biological target: Env of HIV-1 strain 3415.v1.c1 (HIV-1); assay: cell-based or functional assay

Row | Binder | neutralization IC50 [µg/mL]
61 | B1 | > 15
62 | B2 | > 15
63 | B3 | > 15
64 | B4 | > 15
65 | B5 | > 15
66 | B6 | > 15
67 | B7 | > 15
68 | B8 | > 15
69 | B9 | > 15
70 | B10 | > 15
71 | B11 | > 15
72 | B12 | > 15

biological target: Env of HIV-1 strain Du172.17 (HIV-1); assay: cell-based or functional assay

Row | Binder | neutralization IC50 [µg/mL]
73 | B1 | > 15
74 | B2 | > 15
75 | B3 | > 15
76 | B4 | > 15
77 | B5 | > 15
78 | B6 | > 15
79 | B7 | 11.3
80 | B8 | 11.5
81 | B9 | > 15
82 | B10 | > 15
83 | B11 | > 15
84 | B12 | > 15

biological target: Env of HIV-1 strain H086.8 (HIV-1); assay: cell-based or functional assay

Row | Binder | neutralization IC50 [µg/mL]
85 | B1 | > 15
86 | B2 | > 15
87 | B3 | > 15
88 | B4 | 0.778
89 | B5 | > 15
90 | B6 | 1.64
91 | B7 | > 15
92 | B8 | 0.209
93 | B9 | > 15
94 | B10 | > 15
95 | B11 | > 15
96 | B12 | > 15

biological target: Env of HIV-1 strain PVO.4 (HIV-1); assay: cell-based or functional assay

Row | Binder | neutralization IC50 [µg/mL]
97 | B1 | > 15
98 | B2 | 2.92
99 | B3 | > 15
100 | B4 | 0.074
101 | B5 | 6.7
102 | B6 | 0.103
103 | B7 | 0.103
104 | B8 | 0.028
105 | B9 | > 15
106 | B10 | > 15
107 | B11 | > 15
108 | B12 | > 15

biological target: Env of HIV-1 strain R1166.c1 (HIV-1); assay: cell-based or functional assay

Row | Binder | neutralization IC50 [µg/mL]
109 | B1 | 28.2
110 | B2 | 3.39
111 | B3 | > 15
112 | B4 | 1.79
113 | B5 | 9.81
114 | B6 | 1.16
115 | B7 | 1.61
116 | B8 | 0.578
117 | B9 | 20.2
118 | B10 | > 15
119 | B11 | 12.6
120 | B12 | > 15

biological target: Env of HIV-1 strain REJO4541.67 (HIV-1); assay: cell-based or functional assay

Row | Binder | neutralization IC50 [µg/mL]
121 | B1 | 4.67
122 | B2 | > 15
123 | B3 | > 15
124 | B4 | 0.091
125 | B5 | > 15
126 | B6 | 3.47
127 | B7 | 0.14
128 | B8 | 0.049
129 | B9 | > 15
130 | B10 | > 15
131 | B11 | 1.57
132 | B12 | > 15

biological target: Env of HIV-1 strain X1254_c3 (HIV-1); assay: cell-based or functional assay

Row | Binder | neutralization IC50 [µg/mL]
133 | B1 | 9.42
134 | B2 | 5.68
135 | B3 | > 15
136 | B4 | 2.31
137 | B5 | 13.7
138 | B6 | 2.42
139 | B7 | 1.7
140 | B8 | 0.616
141 | B9 | 7.5
142 | B10 | > 15
143 | B11 | 4.67
144 | B12 | 16.2

biological target: Env of HIV-1 strain YU2.DG (HIV-1); assay: cell-based or functional assay

Row | Binder | neutralization IC50 [µg/mL]
145 | B1 | 7.28
146 | B2 | 2.1
147 | B3 | > 15
148 | B4 | 0.276
149 | B5 | 4.12
150 | B6 | 0.298
151 | B7 | 0.34
152 | B8 | 0.07
153 | B9 | > 15
154 | B10 | > 15
155 | B11 | 6.91
156 | B12 | > 15

biological target: Env of HIV-1 strain ZM109F.PB4 (HIV-1); assay: cell-based or functional assay

Row | Binder | neutralization IC50 [µg/mL]
157 | B1 | > 15
158 | B2 | > 15
159 | B3 | > 15
160 | B4 | > 15
161 | B5 | > 15
162 | B6 | > 15
163 | B7 | > 15
164 | B8 | > 15
165 | B9 | > 15
166 | B10 | > 15
167 | B11 | > 15
168 | B12 | > 15

biological target: Env of HIV-1 strain ZM53M.PB12 (HIV-1); assay: cell-based or functional assay

Row | Binder | neutralization IC50 [µg/mL]
169 | B1 | 24.1
170 | B2 | > 15
171 | B3 | > 15
172 | B4 | > 15
173 | B5 | > 15
174 | B6 | > 15
175 | B7 | > 15
176 | B8 | > 15
177 | B9 | > 15
178 | B10 | > 15
179 | B11 | > 15
180 | B12 | > 15

biological target: Env of MuLV; assay: cell-based or functional assay

Row | Binder | neutralization IC50 [µg/mL]
181 | B1 | > 30
182 | B2 | > 30
183 | B3 | > 19
184 | B4 | > 30
185 | B5 | > 30
186 | B6 | > 30
187 | B7 | > 30
188 | B8 | > 30
189 | B9 | > 30
190 | B10 | > 30
191 | B11 | > 30
192 | B12 | > 30
